1 substance from patent US20050053613A1 can be followed below.

The target in this test is CD8 on peripheral blood T cells (UniProt P01732). The experiment in a line: cell-based or functional assay.

Consider “gp180, mAb B9 affinity-purified material from T84 cells (from UniProt P06731 35-685)”, for which the killing in a CTL assay testing alloreactive CTL was under 15%.
